In one test the target is HLA-B*4006 (human) (UniProt P01889). Put plainly: Luminex beads; MAb 1/400; competitor IgG-free serum.
Test [1] has as its target HLA-Cw*1802 (human) (UniProt P10321). The test is described as above.
The target of test [2] is HLA-Cw*1701 (human). The description is as above.
Test [3] addresses HLA-Cw*0801 (human) (UniProt P10321). The test is described as above.
The next test concerns the target HLA-Cw*1402 (human) (UniProt P10321). Put plainly: Luminex beads; MAb 1/800; competitor rHLA-E.
In test [4] the target is HLA-Cw*1601 (human) (UniProt P10321). Put plainly: Luminex beads; MAb 1/800; competitor rHLA-E.
The target of test [5] is HLA-B*3701 (human). Put plainly: Luminex beads; MAb 1/800; competitor rHLA-E.
Test [6] addresses HLA-B*5101 (human). Put plainly: Luminex beads; MAb 1/800; competitor rHLA-E.
Test [7] deals with HLA-Cw*1802 (human) (UniProt P10321). Put plainly: Luminex beads; MAb 1/800; competitor rHLA-E.
The target of test [8] is HLA-Cw*0501 (human). Put plainly: Luminex beads; MAb 1/800; competitor rHLA-E.
Test [9] has as its target HLA-Cw*1601 (human) (UniProt P10321). Put plainly: Luminex beads; MAb 1/400; competitor rHLA-E.
For a further test, the target named is HLA-B*1513 (human). Put plainly: Luminex beads; MAb 1/400; competitor rHLA-E.
Test [10] addresses HLA-B*3701 (human). Put plainly: Luminex beads; MAb 1/400; competitor rHLA-E.
The target in test [11] is HLA-B*5101 (human). Put plainly: Luminex beads; MAb 1/400; competitor rHLA-E.
The next test concerns the target HLA-B*1402 (human). Put plainly: Luminex beads; MAb 1/400; competitor rHLA-E.
Test [12] addresses HLA-Cw*0302 (human) (UniProt P10321). Put plainly: Luminex beads; MAb 1/400; competitor rHLA-E.
Another test deals with HLA-B*1511 (human) (UniProt P01889). Put plainly: Luminex beads; MAb 1/400; competitor rHLA-E.
The target in test [13] is HLA-Cw*1701 (human). Put plainly: Luminex beads; MAb 1/400; competitor rHLA-E.
Test [14] has as its target HLA-Cw*0501 (human). Put plainly: Luminex beads; MAb 1/400; competitor rHLA-E.
For test [15], the target named is HLA-Cw*0302 (human) (UniProt P10321). Put plainly: Luminex beads; MAb 1/400; PBS only.
For test [16], the target named is HLA-Cw*1802 (human) (UniProt P10321). Put plainly: Luminex beads; MAb 1/400; PBS only.
The target of test [17] is HLA-Cw*0801 (human) (UniProt P10321). Put plainly: Luminex beads; MAb 1/400; PBS only.
The target of a further test is HLA-B*4403 (B44) (human). Put plainly: Luminex single-antigen beads; MEM-E/02 1/600; serum Mi114 1/100.
The target in a further test is HLA-B*4501 (B45) (human). The description is as above.
In test [18] the target is HLA-Cw*1203 (Cw12) (human) (UniProt P10321). Described as above.
The target in the next test is HLA-B*1301 (B13) (human). The description is as above.
The target of a further test is HLA-B*4801 (B48) (human) (UniProt P01889). Described as above.
For the next test, the target named is HLA-A*3002 (A30) (human) (UniProt P04439). The description is as above.
The target in a further test is HLA-A*2403 (A24) (human). The test is described as above.
Another test addresses HLA-B*1511 (B75) (human) (UniProt P01889). The test is described as above.
In another test the target is HLA-B*2708 (B27) (human) (UniProt P01889). The description is as above.
For test [19], the target named is HLA-Cw*1802 (Cw18) (human) (UniProt P10321). Described as above.
Test [20] has as its target HLA-Cw*0401 (Cw4) (human). Described as above.
Another test has as its target HLA-B*5301 (B53) (human). Described as above.
Test [21] deals with HLA-Cw*1502 (Cw15) (human). The test is described as above.
The next test addresses HLA-Cw*0304 (human). Described as above.
The next test addresses HLA-B*5001 (B50) (human). The test is described as above.
A further test deals with HLA-A*2501 (A25) (human). Described as above.
In a further test the target is HLA-B*6701 (B67) (human) (UniProt P01889). The test is described as above.
In test [22] the target is HLA-Cw*1701 (Cw17) (human). The test is described as above.
The target in the next test is HLA-B*3801 (B38) (human). The test is described as above.

On to “murine monoclonal antibody (MAb) MEM-E/02”, for which the MFI worked out at 5550 MFI with HLA-B*4006 (human); 7220 MFI with HLA-Cw*1802 (human) [1]; 1360 MFI with HLA-Cw*1701 (human) [2]; 3530 MFI with HLA-Cw*0801 (human) [3]; 48 MFI with HLA-Cw*1402 (human); 87 MFI with HLA-Cw*1601 (human) [4]. The MFI was 29 MFI in the test with HLA-B*3701 (human) [5]; 99 MFI in the test with HLA-B*5101 (human) [6]; 35 MFI with HLA-Cw*1802 (human) [7]; 70 MFI with HLA-Cw*0501 (human) [8]; 87 MFI with HLA-Cw*1601 (human) [9]; 228 MFI with HLA-B*1513 (human). In addition, the MFI with HLA-B*3701 (human) [10] came out at 39 MFI; with HLA-B*5101 (human) [11], 128 MFI; in the test with HLA-B*1402 (human) it was 88 MFI; with HLA-Cw*0302 (human) [12], 130 MFI; with HLA-B*1511 (human), 111 MFI; with HLA-Cw*1701 (human) [13], 184 MFI. The MFI in the test with HLA-Cw*0501 (human) [14] is 87 MFI; with HLA-Cw*0302 (human) [15] it was 1360 MFI; with HLA-Cw*1802 (human) [16], 7040 MFI; with HLA-Cw*0801 (human) [17] it was 3340 MFI.
Consider murine monoclonal antibody MAb MEM-E/02, for which the MFI with HLA-B*4403 (B44) (human) is under 500 MFI; in the test with HLA-B*4501 (B45) (human) it was under 500 MFI; in [18], under 500 MFI; in the test with HLA-B*1301 (B13) (human) it was under 500 MFI; with HLA-B*4801 (B48) (human), 969 MFI; with HLA-A*3002 (A30) (human) it was 803 MFI. The MFI was under 500 MFI with HLA-A*2403 (A24) (human); under 500 MFI in the test with HLA-B*1511 (B75) (human); 2260 MFI with HLA-B*2708 (B27) (human); under 500 MFI in test [19]; under 500 MFI in test [20]; under 500 MFI with HLA-B*5301 (B53) (human). The MFI (in test [21]; with HLA-Cw*0304 (human); with HLA-B*5001 (B50) (human); with HLA-A*2501 (A25) (human); in the test with HLA-B*6701 (B67) (human); in [22]) was under 500 MFI throughout. In the test with HLA-B*3801 (B38) (human), this substance showed an MFI of 929 MFI. Further, the values for the % inhibition with HLA-B*2708 (B27) (human) and with HLA-B*3801 (B38) (human) were 29% and 76%, respectively.

Values taken from patent US20120171195A1.
